Data published in article PMC9824680.

Substrate: O=[N+]([O-])c1ccc(O[C@@H]2O[C@H](CO)[C@@H](O)[C@H](O)[C@H]2O)cc1
Assay: purified protein
Conditions: free enzyme, 100 mM citrate phosphate pH 6.5, 50 °C, pNPG 0.05–25 mM

B1: β-Glucosidase from Thermotoga maritima (bgl) (Thermotoga maritima MSB8) (protein)
chain: MNVKKFPEGFLWGVATASYQIEGSPLADGAGMSIWHTFSHTPGNVKNGDTGDVACDHYNRWKEDIEIIEKLGVKAYRFSISWPRILPEGTGRVNQKGLDFYNRIIDTLLEKGITPFVTIYHWDLPFALQLKGGWANREIADWFAEYSRVLFENFGDRVKNWITLNEPWVVAIVGHLYGVHAPGMRDIYVAFRAVHNLLRAHARAVKVFRETVKDGKIGIVFNNGYFEPASEKEEDIRAVRFMHQFNNYPLFLNPIYRGDYPELVLEFAREYLPENYKDDMSEIQEKIDFVGLNYYSGHLVKFDPDAPAKVSFVERDLPKTAMGWEIVPEGIYWILKKVKEEYNPPEVYITENGAAFDDVVSEDGRVHDQNRIDYLKAHIGQAWKAIQEGVPLKGYFVWSLLDNFEWAEGYSKRFGIVYVDYSTQKRIVKDSGYWYSNVVKNNGLED
- Km: 0.22 ± 0.08 mM
- Vmax: 7.27 µM/min
